Target: T1, B2 C-9ASM (pAD-GAL4 fusion, yeast two-hybrid prey) (flock house virus)
T1 construct: Carries 9 alanine substitutions at the C-terminus; also called FHV B2 c-9ASM
Assay: yeast two-hybrid (Table 1: colony -, β-GAL White)

B1: PAZ domain of Arabidopsis Dicer-like protein 1 (DCL1) (pBD-GAL4 fusion, yeast two-hybrid bait) (other)
chain: MKLLSSIEQACDICRLKKLKCSKEKPKCAKCLKNNWECRYSPKTKRSPLTRAHLTEVESRLERLEQLFLLIFPREDLDMILKMDSLQDIKALLTGLFVQDNVNKDAVTDRLASVETDMPLTLRQHRISATSSSEESSNKGQRQLTVSEVEEDLSKGKLMMADGCMVAEDLIGKIVTAAHSGKRFYVDSICYDMSAETSFPRKEGYLGPLEYNTYADYYKQKYGVDLNCKQQPLIKGRGVSYCKNLLSPRFEQSGESETVLDKTYYVFLPPELCVVHP
notes: domain: BD;domain: PAZ domain; PAZ domain amplified by PCR and inserted into SalI and PstI digested pBD-GAL4 cam; also called DCL1-PAZ; PAZ domain of DCL1
B1: no binding.

Source: patent publication US20160040133A1 (published 2016)
